Experimental data taken from paper PMC2862297 (Journal of molecular biology, 2010).

Biological target: the molecule itself
Assay: cryo-EM structure

B1: LTag108-627 deletion mutant of SV40 large T antigen (domain or fragment)
chain: EMPSSDDEATADSQHSTPPKKKRKVEDPKDFPSELLSFLSHAVFSNRTLACFAIYTTKEKAALLYKKIMEKYSVTFISRHNSYNHNILFFLTPHRHRVSAINNYAQKLCTFSFLICKGVNKEYLMYSALTRDPFSVIEESLPGGLKEHDFNPEEAEETKQVSWKLVTEYAMETKCDDVLLLLGMYLEFQYSFEMCLKCIKKEQPSHYKYHEKHYANAAIFADSKNQKTICQQAVDTVLAKKRVDSLQLTREQMLTNRFNDLLDRMDIMFGSTGSADIEEWMAGVAWLHCLLPKMDSVVYDFLKCMVYNIPKKRYWLFKGPIDSGKTTLAAALLELCGGKALNVNLPLDRLNFELGVAIDQFLVVFEDVKGTGGESRDLPSGQGINNLDNLRDYLDGSVKVNLEKKHLNKRTQIFPPGIVTMNEYSVPKTLQARFVKQIDFRPKDYLKHCLERSEFLLEKRIIQSGIALLLMLIWYRPVAEFAQSIQSRIVEWKERLDKEFSLSVYQKMKFNVAMGIGVLD
In the case of B1, the “stoichiometry N” value is reported as 12.
